Results reported in the supplement of paper PMC10567573.

B1: C6orf223 (parent)
chain: TLARMSRRTRGPVERAAAAAAAAA
B2: ZNF511 (parent)
chain: FDALDDYEHHYHTLHGNVCSFCKR
B3: FAM50A (parent)
chain: KALEILRKDFSELRSAGVEQLMYI

Variants of: B1
Test: protein stability index of a GFP-peptide fusion (GPS, HEK-293T) (PSI 1-6); higher = more stable
Conditions: c terminus: a fixed tail appended
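Also: lentivirally expressed fusions sorted by FACS into six bins by GFP to DsRed ratio, PSI derived from sequencing read proportions per bin multiplied by bin number.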

Protein stability index: each site, then its substitutions
A19: K 3.43
A22: Y 2.66, N 3.38, I 2.23, K 1.97, L 2.4, T 3.2, C 3.33, F 2.37, W 2.68
A24: H 4.49, P 2.23, F 2.35
A16: S 3.8
R15: W 2.01
L2: E 4.7
R4: I 1.94
P12: W 2.27
A17: F 1.63, Y 4.15, R 3.5, T 3.76
A21: V 2.18, M 1.95, W 2.83
A18: N 3.25, T 3.57, P 4.09, Q 2.4, L 2.92, M 1.56, S 2.48, Y 2.13, W 2.45, I 3.43
A23: I 3.49, C 3.99, W 2.18, L 3.09, T 4.46, Y 3.26

Variants of: B2
Test: as above
Conditions: c terminus: a fixed tail appended

Protein stability index of substitutions, site by site:
Y11: I 4.2, M 4.45, H 4.14, A 4.39, G 4.01, D 4.64, N 4.38, F 3.19, C 4.81, E 4.55, L 4.05, K 4.28
H10: Y 3.22, S 3.06, Q 3.48, A 2.94, N 3.37, K 3.24, C 4.7, F 2.92, W 3.04, P 2.76, E 3.74, G 3.73, M 2.65, V 2.46, T 3.4, L 2.62, R 3.59, D 3.85, I 2.53
D5: I 3.45, M 3.14, V 3.54, Q 3.86, E 3.77, Y 3.1, A 4.03, P 4.11, G 4.12, K 3.09, R 3.5, S 3.24, T 3.7, N 3.98, H 3.9, L 3.18, F 2.5, C 4, W 2.98
E8: G 3.55, T 3.67, R 3.55, A 3.66, P 3.81, K 3.05, I 2.51, C 4.43, D 3.82, Y 2.79, S 3.35, W 2.69, Q 3.63, V 2.87, N 3.3, M 2.97, H 3.63, F 2.57, L 2.74
D6: E 3.43, R 3.52, C 4.28, Q 3.56, P 3.74, Y 2.59, F 2.21, M 3.03, N 3.91, V 2.98, L 4.68, W 1.67, H 3.96, G 3.69, K 2.97, I 3.51, T 3.27, A 3.54, S 3.95
H9: I 3.39, A 3.57, T 3.47, Y 2.65, W 2.67, V 3.18, E 3.71, P 3.8, G 4, R 4.1, D 3.69, Q 3.43, C 4.26, N 2.8, L 2.86, F 3.03, S 3.44, K 3.43, M 3.44
F1: N 4.75, W 3.7, V 4.22, L 4.31, G 3.74, C 4.38, K 4.28, Y 3.59, D 4.31, S 4.51, Q 4.11, P 4.04, I 3.43, M 4.59, T 4.28, A 4.38, R 5.08, H 4.46, E 4.64
A3: Q 4.04, K 2.87, M 3.56, G 3.96, N 3.63, P 3.7, H 3.63, E 4.08, I 3.31, T 3.56, L 3.69, V 3.59, S 3.77, F 3.19, R 3.81, D 3.72, Y 3.54, W 2.87, C 4.06
L4: H 4.48, D 4.2, P 3.54, M 3.81, S 4.6, C 3.94, A 4.1, F 4, R 3.93, I 3.56, T 4.44, K 4.39, N 4.51, E 4.41, V 3.75, Q 4.18, W 3.43, G 4.11, Y 3.16
Y7: F 3.24, R 4.23, C 4.92, I 4.18, D 4.22, M 4.29, S 4.05, K 4.44, T 4.16, A 3.4, V 3.98, G 4.16, W 3.71, E 4.31, L 3.54, Q 4.25, H 4.43, P 3.97, N 4.25
D2: H 2.17, P 3.11, T 3.18, M 3.01, Q 2.93, W 2.3, K 3.78, S 3.51, L 3.18, I 3.62, G 4.03, A 3.4, N 3.06, F 2.48, E 4.27, V 2.06, R 3.19, Y 3.1, C 3.17

Variants of: B3
Test: as above
Conditions: c terminus: a fixed tail appended

Protein stability index of substitutions, site by site:
E19: G 1.76, W 1.95, N 2, P 4.03, H 3.15, F 2.9, Q 2.95, I 2.66, L 2.18
A16: E 3.17, I 2.76, V 2.07
E12: T 3.5, Q 3.76, A 2.97, L 2.09, N 3.69, S 3.99, R 4, V 2.75
I24: N 1.21, K 1.94, S 1.54, Q 1.73, C 1.98, E 1.01
L21: P 3.17, A 1.78, N 2.82, G 3, Y 3.12, D 2.23, R 3.83
S11: D 1.6, H 2.97, R 2.76, I 3.09, E 2.51, Y 1.21
R14: Y 1.69, C 4.11, E 1.68, K 1.51, S 2.28, F 3.71, L 4.57, W 2.68, N 1.95
L13: K 1.53, H 5.15, A 3.08, I 2
Q20: K 4.59, V 3.63, L 2.75, Y 2.58, P 3.58, D 3.81, M 1.54
M22: Q 2.37, C 2.56, F 2.34, P 2.46, W 2.3, T 2.22, I 1.97, D 2.22, E 1.27
S15: D 1.14, R 2.64, F 2.51, H 4.69, A 3.13
V18: Y 2.02, L 3.85, K 2.61, N 2.35, F 4.7, S 1.28, E 2.9, G 2.52, I 3.33
G17: H 1.88, A 4.16, Y 2.95, D 1.95
Y23: E 2.41, K 2.67, N 1.03, D 1.45
F10: V 3.72
